For assay [1], the system named is LRP6. In words: 125I-Mesd cell surface binding to LRP6-transduced HT1080 cells. Further details: species or system human. The settings on record: HT1080 cells transduced with vector alone. Here is the method: (§1) To examine whether Mesd binds with high affinity to most members of the LDLR family at the cell surface, we performed cell surface ligand binding experiments with cells stably transduced with LRP6 cDNA. Human HT1080 cells, which express undetectable levels of LRP6, were transduced with a viral vector alone (pLNCX2) or with vector containing LRP6 cDNA (Li, Y., Oncogene 23: 9129-9135, 2004) and used for ^125I-Mesd binding (FIG. 1A). ^125I-Mesd (5 nM) reached maximal binding after 2 hours incubation at 4° C. with LRP6-expressing HT1080 cells (FIG. 1A).
(§2) (A) Time course of ^125I-Mesd (5 nM) binding to LRP6-transduced HT1080 cells and the control cells. Assay was carried out for the indicated periods at 4° C. in the absence (total) or presence of 500 nM Mesd (non-specific). (B) Saturation binding of ^125I-Mesd to LRP6-transduced HT1080 cells and the control cells. Assay was carried out at indicated concentrations for 3 hours at 4° C. in the absence (total) or presence (non-specific) of 500 nM Mesd. (C) Scatchard plots of data in B. All values are the average of triple determinations with the s.d. indicated by error bars.
(§3) Cells (2×10^5) were seeded into 12-well dishes 1 day prior to assay. Ligand-binding buffer (minimal Eagle's medium containing 0.6% BSA with a different concentration of radioligand, 0.6 ml/well) was added to cell monolayers, in the absence or the presence of 500 nM unlabeled RAP or 500 nM unlabeled Mesd, followed with incubation for 0-4 hours at 4° C. Thereafter, overlying buffer containing unbound ligand was removed, and cell monolayers were washed and lysed in low-SDS lysis buffer (62.5 mM Tris-HCl pH 6.8, 0.2% SDS, 10% v/glycerol) and counted.
(§4) To analyze the Mesd sequences that are required for Mesd to bind to mature LRP6 at the cell surface with high affinity, sequences were compared between mouse Mesd and its homologs from different species. […] We thus generated two truncated Mesd mutants lacking either the N-terminal region, MESD (12-195), or both the N-terminal and C-terminal regions, Mesd (12-155) (FIG. 3A). The ability of these mutants to bind to cell surface LRP6 was then assessed.
(§5) In this example, a truncated Mesd mutant containing the last 45 amino acids of C-terminal region was generated (FIG. 3A) and its binding affinity for LRP6 was then analyzed. […] (A) Binding analyses of ^125I-Mesd and its mutant Mesd (150-195) (5 nM) to LRP6-transduced HT1080 cells and control cells. (B) Binding analyses of ^125I-Mesd and its mutant Mesd (150-195) (5 nM) to LRP6-transduced HT1080 cells. Assays were carried out for 3 hours at 4° C. in the absence or presence of 500 nM Mesd or its mutant. Values are the means of triple determinations with the s.d. indicated by error bars.
(§6) LRP6-mediated Mesd uptake and degradation was investigated in the experiments illustrated in FIG. 7. (A) LRP6-mediated ^125I-Mesd (5 nM) degradation in LRP6-transduced HT1080 cells and control cells was carried out for 4 hours at 37° C. in the absence or presence of 500 nM Mesd. (B) ^125I-Mesd (5 nM) binding to LRP6-transduced HT1080 cells and the control cells was carried out for 4 hours at 4° C. in the absence or presence of 500 nM Mesd. Values are the means of triple determinations with the s.d. indicated by error bars.

Assay [2] deals with T1, LRP6 (Homo sapiens, UniProt O75581).
T1 construct: expressed in transfected cells; host or cells: human HT1080 cells, retroviral vector pLNCX2
The assay is described as above. Here is the method: as §1, §2, §3, §4, §5, §6

This is an account of results in US8198236B2, “Methods and compositions for the treatment of cancer” (Washington University, priority 2007, dated 2012).

Bounds are passed on as bounds.

T1 sequence (O75581 20-1613): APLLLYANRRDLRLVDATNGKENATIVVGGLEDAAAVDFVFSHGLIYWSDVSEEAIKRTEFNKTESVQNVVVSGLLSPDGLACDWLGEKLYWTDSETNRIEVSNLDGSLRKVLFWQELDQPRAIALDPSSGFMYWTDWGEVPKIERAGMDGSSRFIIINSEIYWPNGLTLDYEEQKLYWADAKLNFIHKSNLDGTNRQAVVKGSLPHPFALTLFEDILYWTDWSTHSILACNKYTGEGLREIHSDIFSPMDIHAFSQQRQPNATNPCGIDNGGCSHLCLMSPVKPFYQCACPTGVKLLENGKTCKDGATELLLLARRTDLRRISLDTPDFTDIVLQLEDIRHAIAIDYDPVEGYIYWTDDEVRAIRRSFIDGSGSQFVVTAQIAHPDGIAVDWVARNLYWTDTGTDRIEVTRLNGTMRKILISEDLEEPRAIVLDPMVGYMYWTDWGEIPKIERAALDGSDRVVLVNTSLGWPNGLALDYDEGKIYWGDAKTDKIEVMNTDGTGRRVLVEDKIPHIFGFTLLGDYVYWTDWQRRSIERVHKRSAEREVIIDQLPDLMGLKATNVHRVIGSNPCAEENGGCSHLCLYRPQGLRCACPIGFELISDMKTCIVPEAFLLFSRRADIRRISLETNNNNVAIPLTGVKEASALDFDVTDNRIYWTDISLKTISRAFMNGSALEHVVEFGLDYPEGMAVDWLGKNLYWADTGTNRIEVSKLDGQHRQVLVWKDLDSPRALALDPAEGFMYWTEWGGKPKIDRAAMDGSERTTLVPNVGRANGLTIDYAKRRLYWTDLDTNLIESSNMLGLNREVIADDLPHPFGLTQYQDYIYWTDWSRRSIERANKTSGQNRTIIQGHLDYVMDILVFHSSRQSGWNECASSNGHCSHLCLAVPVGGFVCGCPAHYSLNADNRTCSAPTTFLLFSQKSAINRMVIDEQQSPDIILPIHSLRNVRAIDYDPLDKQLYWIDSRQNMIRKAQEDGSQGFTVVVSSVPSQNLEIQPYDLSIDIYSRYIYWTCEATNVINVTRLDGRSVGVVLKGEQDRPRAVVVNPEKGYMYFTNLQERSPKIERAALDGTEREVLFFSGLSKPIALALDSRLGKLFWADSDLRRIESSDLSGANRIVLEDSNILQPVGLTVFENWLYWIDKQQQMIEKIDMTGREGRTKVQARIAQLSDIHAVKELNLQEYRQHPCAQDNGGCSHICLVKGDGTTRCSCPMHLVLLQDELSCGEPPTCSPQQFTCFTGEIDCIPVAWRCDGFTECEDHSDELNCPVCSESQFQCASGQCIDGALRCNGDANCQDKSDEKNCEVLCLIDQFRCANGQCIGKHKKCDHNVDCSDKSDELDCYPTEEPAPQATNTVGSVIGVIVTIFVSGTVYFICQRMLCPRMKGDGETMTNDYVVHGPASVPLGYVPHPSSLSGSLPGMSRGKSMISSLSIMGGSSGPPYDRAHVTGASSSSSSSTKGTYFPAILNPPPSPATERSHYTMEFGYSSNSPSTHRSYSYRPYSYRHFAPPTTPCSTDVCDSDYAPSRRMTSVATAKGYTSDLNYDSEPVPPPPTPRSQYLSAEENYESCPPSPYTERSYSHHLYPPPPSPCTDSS

B1: Mesd: Recombinant full-length mouse Mesd expressed in E. coli, N-terminal polyhistidine tail, lacking the signal peptide (protein)
chain: ADTPGEATPPPRKKKDIRDYNDADMARLLEQWEKDDDIEEGDLPEHKRPSAPIDFSKLDPGKPESILKMTKKGKTLMMFVTVSGNPTEKETEEITSLWQGSLFNANYDVQRFIVGSDRAIFMLRDGSYAWEIKDFLVSQDRCAEVTLEGQMYPGKGGGSKEKNKTKPEKAKKKEGDRKPRASKEDNRAGSRREDL
modifications: left off: small tags and cut ends
notes: Recombinant full-length mouse Mesd expressed in E. coli, N-terminal polyhistidine tail, lacking the signal peptide
As to B1, the “125I-Mesd binding to control cells (pLNCX2)” value in assay [1] is reported as “No significant”. The molecule further yielded a 125I-Mesd binding in assay [2] (5 nM, 4 hours at 4° C.) of 1320 fmoles/mg cell protein. Besides, the “Concentration at which Mesd specific binding saturates” value in assay [2] (LRP6-transduced HT1080 cells, 3 hours at 4° C.) is recorded as greater than 6.4 nM.
